Patent US20240425885

Assays:
Test in all cases: cleavage_in_vitro
[1] = test system: T1, OMNI-92 (metagenomic, unknown); details: TXTL; PAM NNNNRYGA
T1 sequence: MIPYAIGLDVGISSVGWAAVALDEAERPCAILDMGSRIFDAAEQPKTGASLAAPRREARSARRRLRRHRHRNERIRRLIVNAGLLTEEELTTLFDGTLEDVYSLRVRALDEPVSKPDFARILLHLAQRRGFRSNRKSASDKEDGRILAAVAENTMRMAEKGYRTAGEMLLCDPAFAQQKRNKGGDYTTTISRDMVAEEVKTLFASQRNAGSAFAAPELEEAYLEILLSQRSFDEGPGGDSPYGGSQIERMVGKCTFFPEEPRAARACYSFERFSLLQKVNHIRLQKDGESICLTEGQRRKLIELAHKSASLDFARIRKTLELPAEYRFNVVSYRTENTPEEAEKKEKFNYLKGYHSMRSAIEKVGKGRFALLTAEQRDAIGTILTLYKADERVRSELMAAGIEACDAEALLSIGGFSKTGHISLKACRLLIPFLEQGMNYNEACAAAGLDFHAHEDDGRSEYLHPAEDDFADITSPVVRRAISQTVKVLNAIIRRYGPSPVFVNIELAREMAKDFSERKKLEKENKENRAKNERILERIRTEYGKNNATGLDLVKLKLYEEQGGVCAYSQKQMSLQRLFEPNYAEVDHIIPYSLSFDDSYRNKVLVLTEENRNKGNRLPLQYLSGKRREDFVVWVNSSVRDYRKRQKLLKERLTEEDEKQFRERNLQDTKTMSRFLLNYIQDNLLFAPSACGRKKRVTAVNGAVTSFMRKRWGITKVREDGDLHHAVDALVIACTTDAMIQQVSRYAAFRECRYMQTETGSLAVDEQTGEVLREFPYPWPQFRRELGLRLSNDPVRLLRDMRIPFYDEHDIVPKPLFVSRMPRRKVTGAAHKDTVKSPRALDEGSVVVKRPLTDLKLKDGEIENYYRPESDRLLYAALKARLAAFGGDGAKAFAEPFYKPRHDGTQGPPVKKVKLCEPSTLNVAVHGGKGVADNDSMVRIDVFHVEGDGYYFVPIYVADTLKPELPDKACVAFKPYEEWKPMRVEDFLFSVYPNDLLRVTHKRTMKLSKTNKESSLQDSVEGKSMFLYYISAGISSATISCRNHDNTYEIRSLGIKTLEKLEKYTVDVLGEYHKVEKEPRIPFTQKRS

[2] = test system: T2, OMNI-136 (metagenomic, unknown); details: TXTL; PAM NNDRCNAA
T2 sequence: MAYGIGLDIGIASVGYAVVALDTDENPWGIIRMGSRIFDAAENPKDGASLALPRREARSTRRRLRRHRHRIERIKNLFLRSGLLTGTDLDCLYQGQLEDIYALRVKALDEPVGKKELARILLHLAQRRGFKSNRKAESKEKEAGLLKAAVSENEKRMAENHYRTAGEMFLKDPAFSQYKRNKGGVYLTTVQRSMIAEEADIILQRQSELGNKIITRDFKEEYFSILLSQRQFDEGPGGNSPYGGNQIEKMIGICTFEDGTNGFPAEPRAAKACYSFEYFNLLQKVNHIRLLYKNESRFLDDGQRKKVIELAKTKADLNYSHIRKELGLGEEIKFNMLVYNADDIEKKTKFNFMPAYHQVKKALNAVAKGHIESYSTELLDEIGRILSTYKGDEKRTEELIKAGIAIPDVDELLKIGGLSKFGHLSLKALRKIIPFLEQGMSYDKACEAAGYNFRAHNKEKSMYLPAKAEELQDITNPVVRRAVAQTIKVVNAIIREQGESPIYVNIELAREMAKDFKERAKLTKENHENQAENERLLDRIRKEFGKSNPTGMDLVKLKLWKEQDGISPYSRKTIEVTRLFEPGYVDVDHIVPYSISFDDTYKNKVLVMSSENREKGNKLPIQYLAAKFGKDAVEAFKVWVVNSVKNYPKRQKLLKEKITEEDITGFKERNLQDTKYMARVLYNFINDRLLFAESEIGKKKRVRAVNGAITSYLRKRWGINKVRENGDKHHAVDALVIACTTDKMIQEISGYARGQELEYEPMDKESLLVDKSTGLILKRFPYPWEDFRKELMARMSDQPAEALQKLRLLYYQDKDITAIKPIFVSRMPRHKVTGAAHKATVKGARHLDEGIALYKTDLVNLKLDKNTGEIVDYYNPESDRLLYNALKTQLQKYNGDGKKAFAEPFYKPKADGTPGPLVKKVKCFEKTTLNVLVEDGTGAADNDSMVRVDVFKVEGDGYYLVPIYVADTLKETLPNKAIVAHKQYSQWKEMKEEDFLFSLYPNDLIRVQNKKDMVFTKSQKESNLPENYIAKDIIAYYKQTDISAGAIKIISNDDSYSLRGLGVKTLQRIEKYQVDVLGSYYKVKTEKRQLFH

[3] = test system: T3, OMNI-133 (metagenomic, unknown); details: TXTL; PAM NNTAMCNN
T3 sequence: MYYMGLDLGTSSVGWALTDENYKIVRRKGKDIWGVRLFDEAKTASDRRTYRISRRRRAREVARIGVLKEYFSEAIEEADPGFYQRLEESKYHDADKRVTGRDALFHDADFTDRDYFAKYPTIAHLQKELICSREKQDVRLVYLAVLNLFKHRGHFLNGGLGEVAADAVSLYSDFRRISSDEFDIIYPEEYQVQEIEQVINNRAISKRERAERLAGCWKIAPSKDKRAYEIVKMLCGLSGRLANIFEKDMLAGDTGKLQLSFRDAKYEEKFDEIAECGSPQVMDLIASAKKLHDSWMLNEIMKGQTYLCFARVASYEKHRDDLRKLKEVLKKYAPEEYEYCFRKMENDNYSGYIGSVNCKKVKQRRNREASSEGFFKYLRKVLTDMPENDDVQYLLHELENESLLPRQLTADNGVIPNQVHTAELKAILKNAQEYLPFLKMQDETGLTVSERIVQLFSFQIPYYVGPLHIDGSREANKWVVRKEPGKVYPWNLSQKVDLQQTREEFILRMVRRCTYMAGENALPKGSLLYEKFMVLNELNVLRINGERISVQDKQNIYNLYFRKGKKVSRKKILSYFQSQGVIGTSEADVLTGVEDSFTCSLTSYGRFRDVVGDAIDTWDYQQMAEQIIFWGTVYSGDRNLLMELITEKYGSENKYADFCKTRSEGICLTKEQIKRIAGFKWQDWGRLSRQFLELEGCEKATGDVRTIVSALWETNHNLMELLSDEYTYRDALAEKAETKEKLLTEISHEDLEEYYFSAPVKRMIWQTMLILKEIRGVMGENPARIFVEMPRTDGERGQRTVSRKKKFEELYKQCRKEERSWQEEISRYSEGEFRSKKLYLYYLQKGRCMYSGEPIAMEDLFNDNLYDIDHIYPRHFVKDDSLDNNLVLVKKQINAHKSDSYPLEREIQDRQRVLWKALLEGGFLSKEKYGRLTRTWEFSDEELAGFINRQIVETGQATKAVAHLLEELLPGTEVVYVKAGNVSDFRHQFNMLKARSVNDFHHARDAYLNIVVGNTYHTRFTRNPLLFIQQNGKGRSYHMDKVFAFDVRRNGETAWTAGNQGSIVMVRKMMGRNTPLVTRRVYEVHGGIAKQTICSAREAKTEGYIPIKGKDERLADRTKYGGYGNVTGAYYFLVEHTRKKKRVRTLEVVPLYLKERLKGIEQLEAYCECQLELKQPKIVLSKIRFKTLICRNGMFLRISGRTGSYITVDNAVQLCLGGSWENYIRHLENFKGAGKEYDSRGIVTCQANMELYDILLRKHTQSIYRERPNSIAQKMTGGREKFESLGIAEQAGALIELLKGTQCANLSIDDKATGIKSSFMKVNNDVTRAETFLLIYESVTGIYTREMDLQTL

[4] = test system: T4, OMNI-135 (metagenomic, unknown); details: TXTL; PAM NNWACCNN
T4 sequence: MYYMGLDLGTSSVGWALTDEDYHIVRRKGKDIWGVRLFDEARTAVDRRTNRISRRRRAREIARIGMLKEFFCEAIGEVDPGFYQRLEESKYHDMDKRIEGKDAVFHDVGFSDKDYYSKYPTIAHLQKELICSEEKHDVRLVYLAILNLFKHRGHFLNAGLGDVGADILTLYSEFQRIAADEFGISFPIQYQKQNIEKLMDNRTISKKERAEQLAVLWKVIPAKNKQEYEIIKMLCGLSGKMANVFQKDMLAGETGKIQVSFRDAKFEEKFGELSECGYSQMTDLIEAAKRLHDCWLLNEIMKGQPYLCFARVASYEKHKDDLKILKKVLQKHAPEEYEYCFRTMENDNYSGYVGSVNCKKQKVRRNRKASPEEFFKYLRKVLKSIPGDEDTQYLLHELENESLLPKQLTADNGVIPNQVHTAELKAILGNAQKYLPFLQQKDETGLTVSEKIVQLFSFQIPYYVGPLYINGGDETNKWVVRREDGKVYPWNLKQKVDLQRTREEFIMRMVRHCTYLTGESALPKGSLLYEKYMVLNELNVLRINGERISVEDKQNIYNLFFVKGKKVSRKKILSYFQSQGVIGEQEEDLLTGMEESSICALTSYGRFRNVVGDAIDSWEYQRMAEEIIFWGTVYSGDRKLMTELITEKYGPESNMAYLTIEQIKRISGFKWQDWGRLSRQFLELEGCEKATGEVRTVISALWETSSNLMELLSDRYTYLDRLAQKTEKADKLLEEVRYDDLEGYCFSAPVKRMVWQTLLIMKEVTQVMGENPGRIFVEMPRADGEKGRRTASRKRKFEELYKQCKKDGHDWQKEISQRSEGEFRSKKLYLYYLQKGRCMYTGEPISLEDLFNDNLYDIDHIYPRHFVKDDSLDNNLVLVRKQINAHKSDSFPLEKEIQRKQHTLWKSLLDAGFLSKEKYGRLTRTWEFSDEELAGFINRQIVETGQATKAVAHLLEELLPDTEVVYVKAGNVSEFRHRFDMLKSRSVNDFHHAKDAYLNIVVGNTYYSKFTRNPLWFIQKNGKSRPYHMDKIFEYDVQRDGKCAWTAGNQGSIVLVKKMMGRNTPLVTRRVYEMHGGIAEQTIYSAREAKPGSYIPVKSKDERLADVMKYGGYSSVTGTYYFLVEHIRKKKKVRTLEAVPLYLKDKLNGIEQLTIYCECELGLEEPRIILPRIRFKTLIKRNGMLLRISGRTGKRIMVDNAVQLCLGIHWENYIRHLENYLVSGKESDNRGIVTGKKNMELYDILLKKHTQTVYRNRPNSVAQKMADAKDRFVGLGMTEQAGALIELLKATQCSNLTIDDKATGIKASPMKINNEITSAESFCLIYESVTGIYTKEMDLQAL

## GGAAGAGCAGAGCCUUGGUCUCGUUGUAGUUCCCUGAUCGUGAAAACGAUCAGGUUGCUACAAUAAGGUAGUACACCGAAGAGCUCUAACGCCCCGUUUUGCGGGGCGUUAUCUCUUUUUUU / GGAAGAGCAGAGCCTTGGTCTCNNNNNNNN / NNNNNNNNGAGACCAAGGCTCTGCTCTTCC [T2 sgRNA 3 V1 ; T2 protospacer + 8N PAM library (pbPOS T2)]
[1]
  activity (1-depletion score): 0.97

## GGAAGAGCAGAGCCUUGGUCUCGUUGUAGUUCCCUGUUAAUGAAAAUUUUCGGGUUACUAUGAUAAGGUAGAACACCGAAAAGCUCUAACGCCUUGCCAUUUGGUGAGGCGUUAUCUUUUUU / GGAAGAGCAGAGCCTTGGTCTCNNNNNNNN / NNNNNNNNGAGACCAAGGCTCTGCTCTTCC [T2 sgRNA 36 V1 ; T2 protospacer + 8N PAM library (pbPOS T2)]
[2]
  activity (1-depletion score): 0.97

## GGAAGAGCAGAGCCUUGGUCUCGUUUGAGAACCUUGUAAGAAAUUACAAGGUGAGUGCAAAUAAGGAUUUUUCCGAAAUCACUCCUCAUAAGAGUCCGCAUUGUGCGGUGAAAAGACUCUGCCAAGAGUCUUUUUU / GGAAGAGCAGAGCCTTGGTCTCNNNNNNNN / NNNNNNNNGAGACCAAGGCTCTGCTCTTCC [T2 sgRNA 33 V1 ; T2 protospacer + 8N PAM library (pbPOS T2)]
[3]
  activity (1-depletion score): 0.95

## GGAAGAGCAGAGCCUUGGUCUCGUUUGAGAACCUUGUAAGAAAUUACAAGGUGAGUGCAAAUAAGGAUUUUUCCGAAAUCACUCCUCAUGGAUGUCCGCAUUGUGCGGUGAAAAAGACUCUGUUUAGAGUCUUUUUU / GGAAGAGCAGAGCCTTGGTCTCNNNNNNNN / NNNNNNNNGAGACCAAGGCTCTGCTCTTCC [T2 sgRNA 35 V1 ; T2 protospacer + 8N PAM library (pbPOS T2)]
[4]
  activity (1-depletion score): 0.95
